Measured values from PMC3735172.
Changes are numbered by the printed parent chain. Where two headings read alike, the source gives them in different places.

T1: MtAlba(R39) (Methanothermobacter thermautotrophicus, UniProt O27527 1-91, I39R)
T1 sequence: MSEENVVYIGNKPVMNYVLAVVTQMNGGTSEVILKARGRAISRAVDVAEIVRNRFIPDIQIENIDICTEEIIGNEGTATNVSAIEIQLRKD

T2: MtAlba(I39) (Methanothermobacter thermautotrophicus …, UniProt O27527 1-91)
T2 sequence: T1 sequence with R39I

B1: tRNAPro (structured_RNA)
RNA: GGGCGAGUAGCGCAGCUUGGUAGCGCAACUGGUUUGGGACCAGUGGGUCGGAGGUUCGAAUCCUCUCUCGUCCACCA
B2: 36 bp dsDNA (dsDNA)
DNA 1: ATCAATTAAAGCGTTCTACGGCGTTTTAGATCTGAT
DNA 2: ATCAGATCTAAAACGCCGTAGAACGCTTTAATTGAT

Experiments:
Assay in all cases: EMSA
[1] = target: T1, MtAlba(R39)
[2] = target: T2, MtAlba(I39)
[3] = target: T2, MtAlba(I39); remark: listed apart in the source

Row | Binder | Kd [1] | binding result [2] | binding result [3]
1 | B1 | ~1000 nM | no binding | 
2 | B2 | ~200 nM |  | no binding
3 | UUAAAGCCCGUGGAAGAGCC (ssRNA) [ssRNA] | ~1500 nM | no binding | 
